Measurements as given in the nanobody polyreactivity screen of Harvey et al. (2022).

Assay: yeast display, Sf9 membrane polyspecificity reagent, FACS + sequencing; frameworks hold sequencing errors
Method in brief: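 Galactose-induced (36–48 hours) yeast carrying a synthetic nanobody display library were exposed to 10% biotinylated, detergent-solubilized Sf9 membrane reagent at 4 °C for 1 hour. FACS followed streptavidin microbead enrichment, using low and high (top ~1%) gates for expression (anti-HA) and reagent binding (streptavidin). Colony PCR, MiSeq 2 × 250 sequencing and CDR-length filtering followed. Labels for polyreactivity reflect the gate of origin.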
With “QVQLEESGGGLVQAGGSLRLSCAASGIIFILYTMGWYRQAPGKERELVATISSGGGSTFYADSVKGRFTISRDNAKNTVYLQMNSLKPEDTAVYYCAAEQLYYGERYYIWGYYYWGQGTQVTVSS” the “polyreactivity (PSR sort gate)” value was “low polyreactivity”.
For “QVQLEESGGGLVQAGGSLRLSCAASGIIFRFYTMGWYRQAPGKERELVAVITWSGGSTYYADSVKGRFSISRDNAMNTVYLQMNSLKPEATAVYYCNAEYTYGNSVYKYDYWGQGTQVTVSS”, the “polyreactivity (PSR sort gate)” value was “low polyreactivity”.
With “QVQLEESGGGLVQAGGSLRLSCAASGIIIATYAMGWYRQAPGKERELVAVISNDGSTHYADSVKGRFTISRDNAKNTVYLQMNSLKPEDTAVYYCNAEEIDEASYAYPPLEYDYWGQGTQVTVSS” the “polyreactivity (PSR sort gate)” value was “low polyreactivity”.
With “QVQLEESGGGLVQAGGSLRLSCAASGINFSVYGMGGYRQATGKERELVASITKSGGTTYYADSVKGRFTISRDNAKNTVYLQMNSLKPEDTAVYYCAAAWSDKRVLSVYYAYYWGQGTQVTVSS” the “polyreactivity (PSR sort gate)” value was “high polyreactivity”.
With “QVQLEESGGGLVQAGGSLRLSCAASGITFFWNAMGWYRQAPGTERELVAVISSGGSTKYSDSVKGRFTISRDNAKNTVYLQMNSLKPEDTAVYYCAAAVRVGTRQYGYWGQGTQVTVSS” the “polyreactivity (PSR sort gate)” value was “high polyreactivity”.
In the case of “QVQLEESGGGLVQAGGSLRLSCAASGITFRQYAMGWYRQAPGKERELVATISSGDDTYYADSVKGRFTISRDNAKNTVYLQMNSLKPEDTAVYYCAARYWTSIVRYRGDYWGQGTQVTVSS”, the “polyreactivity (PSR sort gate)” value is reported as “high polyreactivity”.
With “QVQLEESGGGLVQAGGSLRLSCAASGITFSGNAMGWYRQAPGKERELVATISQSGGRTYYADSVKGRFTISRDNAKNTVYLQMNSLKPEDTAVYYCARRRLRYTDRGYYYWGQGTQVTVSS” the “polyreactivity (PSR sort gate)” value was “high polyreactivity”.
For “QVQLEESGGGLVQAGGSLRLSCAASGLTFRIYAMGWYRQAPGKERELVAAISYRGGSTYYADSVKGRFTISRDNAKNTVSLQMNSLKPEDTAVYYCAAGFVLNGIRYDFWGQGTQLTVSS”, the “polyreactivity (PSR sort gate)” value was “high polyreactivity”.
For “QVQLEESGGGLVQAGGSLRLSCAASGLTISWNAMGWYRQAPGKERELVAAISSRGGSTYYADSVKARFKISRDNAKNTVYLQMNSLKPEETAVYYCAAEGYTYYPVYSTRMYYWGQGTQVTVLS”, the “polyreactivity (PSR sort gate)” value was “low polyreactivity”.
In the case of “QVQLEESGGGLVQAGGSLRLSCAASGNILWKNAMGWYRQAPGKERELVAAITRSGGSTYYADSVKGRFTISRDNAKNTVYLQMNSLKPEDTAVYYCATRNLGYRPYRYDYWGQGTQVTVSS”, the “polyreactivity (PSR sort gate)” value is reported as “high polyreactivity”.
For “QVQLEESGGGLVQAGGSLRLSCAASGRIFGGYAMGWYRQAPGKERELVAAITSSGSTNYADSVKGRFTISRDNAKNTVYLQMNSLKPEDTAVYYCATDFKTVYYWWGMDYWGQGTQVTVSS”, the “polyreactivity (PSR sort gate)” value was “low polyreactivity”.
In the case of “QVQLEESGGGLVQAGGSLRLSCAASGRIFYGNSMGWYRQAPGKERELVAAISKRGGSTYYADSVKGRFTISRDNAKNTVYLQMNSLKPEDTAVYYCAASYPTRAWEYDYWGQGTQVTVAS”, the “polyreactivity (PSR sort gate)” value is reported as “high polyreactivity”.
For “QVQLEESGGGLVQAGGSLRLSCAASGRIGAYAMGWYRQAPGKERELVAGITSNGASTYYADSVKGRFTISRDNAKNTVYLQMNSLKPEDTAVYYCAARYRFQRGGYYYWGQGTQVTVSS”, the “polyreactivity (PSR sort gate)” value was “high polyreactivity”.
With “QVQLEESGGGLVQAGGSLRLSCAASGRIRYYAMGWYRQAPGKERELVAAISSTGGSTYYADSVKGRFTISRDNAKNTVYFQMNSLKPEDTAVYYCNVAWIWGKYEYWGQGTQVTVSS” the “polyreactivity (PSR sort gate)” value was “high polyreactivity”.
With “QVQLEESGGGLVQAGGSLRLSCAASGRISESNDRGWYRQAPGKERQLVAAISSSGGSTYYADSVKGRFTISRDTAKNTVYLQLNSLKPEDTAVYYCAREYIFSVYDYSTSYYYWGQGTQVTVSS” the “polyreactivity (PSR sort gate)” value was “low polyreactivity”.
In the case of “QVQLEESGGGLVQAGGSLRLSCAASGRNFSVYAMGWYRPAPGKERELVARIRSGGSTYYADSVKGRFTISRDNAKNTVYLQMNSLKPEDTAVYYCAADGFASRWYAYYYWGQGTQVTVSS”, the “polyreactivity (PSR sort gate)” value is reported as “high polyreactivity”.
With “QVQLEESGGGLVQAGGSLRLSCAASGRTFPLYVMGWYRQAPGKEREWVAAISARGGSTYYADSVKGRFTISRDNAKNTVYLQMNSLKPEDTAVYYCATLVTNGRYDSWGQGTQVTVSS” the “polyreactivity (PSR sort gate)” value was “high polyreactivity”.
For “QVQLEESGGGLVQAGGSLRLSCAASGRTFQYYTMGWYRQAPGKEREFVAAIRDSGGSTYYADSVKGRFTISRDNAKNTVYLQMNSLKPEDTAVYYCNKVPNGPSNYDYWGQGTQVTVSS”, the “polyreactivity (PSR sort gate)” value was “high polyreactivity”.
For “QVQLEESGGGLVQAGGSLRLSCAASGRTFRYNAMGWYRQAPGKERELVVAINWSGGSTYYADSVKGRFTISRDNAKNTVYLQMNSLKPEDTAVYYCAAEPTGWVWYAGYGYYWGQGTRVTVSS”, the “polyreactivity (PSR sort gate)” value was “high polyreactivity”.
With “QVQLEESGGGLVQAGGSLRLSCAASGRTFVFNAMGWYRQAPGTERELVASINSRVGSTYYADSVKGRFTISRDNAKNTVYLQMNSLKPEDTAVYYCAARSYSSYYYWGQGTQVTVSS” the “polyreactivity (PSR sort gate)” value was “high polyreactivity”.
In the case of “QVQLEESGGGLVQAGGSLRLSCAASGRTSRSYTMGWYRQAPGKERELVAAITRGGRTYYADSVKGRFTISRDNANNTVYLQMNSLKPEDTAVYYCDTVRVQSYGYWGQGTQVTVSS”, the “polyreactivity (PSR sort gate)” value is reported as “low polyreactivity”.
With “QVQLEESGGGLVQAGGSLRLSCAASGSIFAPYVMGWYRQATGKERELVAAITESGGRTYYADSVKGRFTISRDNAKNTVYLQMNSLKPEDTAVYYCAARTYDRNRQLRRQWYDYWGQGTQVTVSS” the “polyreactivity (PSR sort gate)” value was “high polyreactivity”.
For “QVQLEESGGGLVQAGGSLRLSCAASGSIFFGNDMGWYSQAPGKERELVAGISNGGRTNYADSVKGRFTISRDNAKNHVYLLMHSLKPEDTAVYYCAKHPVYIYWSRVLVGYSSWGQGTQGTVSS”, the “polyreactivity (PSR sort gate)” value was “low polyreactivity”.
For “QVQLEESGGGLVQAGGSLRLSCAASGSIFGYNHMGWYRQAPGKERELVATITWGGGRTRYADSVKGRFTISRVNAKNTVYLQMNSLKPEDTAVYYCAADKRSYSYVRPPRNHEDYWGQGTQVTVSS”, the “polyreactivity (PSR sort gate)” value was “low polyreactivity”.
In the case of “QVQLEESGGGLVQAGGSLRLSCAASGSIFKFYAMGWYRQAPGKEREFVAAIRQSGGRTYYADSVKGRFTISRDNAKNTVYLPMNSLKPEDTAVYYCAADGYYWEYYYWGQGTQVTVSS”, the “polyreactivity (PSR sort gate)” value is reported as “high polyreactivity”.
For “QVQLEESGGGLVQAGGSLRLSCAASGSIFLNYGMGWYRQAPGKERELVAGISNGGSTNYADSVKGRFTISRDNAKNTVYLQMNSLKPEDTAVYYCARPAYKSRGKRFDYWGQGTQVTVSS”, the “polyreactivity (PSR sort gate)” value was “low polyreactivity”.
In the case of “QVQLEESGGGLVQAGGSLRLSCAASGSIFPWYAMGWYRQAPGKERELVAVITSGGSTNYADSVKGRFTISRANAKNTVYLQMNSLYPEDTAVYYCYADAPLDDFSPRFEVSTEHSWGQGTQVTVSS”, the “polyreactivity (PSR sort gate)” value is reported as “low polyreactivity”.
For “QVQLEESGGGLVQAGGSLRLSCAASGSIFQTYAMGWSRQAPGKERQLVAAITSGGGSTYYADSVKGRFTISRDNAKNTVYLQMNSLKREDTAVYYCAAGSRFVSSRLYYWGQGTQVTVSS”, the “polyreactivity (PSR sort gate)” value was “high polyreactivity”.
In the case of “QVQLEESGGGLVQAGGSLRLSCAASGSIFRSYAMGWYRQAPGKEREFVAAINSRSGSTYYADSVKGRFTISRDNAKNTVYLQMNSLKPEDTAVYYCAAKFAQPDYRYDYWGQGTQVTVSS”, the “polyreactivity (PSR sort gate)” value is reported as “high polyreactivity”.
For “QVQLEESGGGLVQAGGSLRLSCAASGSIFSAYFMVWYRQAPGKERELVAAINRGGNTYYADSVKGRFTISRDNANITVYLQMNSLKPEDTAVYYCNAQWYYLRYRYDYWGQGTQVTVSS”, the “polyreactivity (PSR sort gate)” value was “high polyreactivity”.
With “QVQLEESGGGLVQAGGSLRLSCAASGSIFSIYAMGWYRQAPGKERELVASITRSSGRTYYADSVKGRFTISRDNAKNTVYLQMNSLKPEDTAVYYCAKDYIPLALDADDYWGQGTQVTVSS” the “polyreactivity (PSR sort gate)” value was “low polyreactivity”.
With “QVQLEESGGGLVQAGGSLRLSCAASGSIFVGYALGWYIQAPGKERELVASITTRGGSTHYADYVKGRFTISRDNAKNTVYLQMNSLKPEDTAVYYCAADSLSNGVLQYLPGYDYWGQGTQVTVSS” the “polyreactivity (PSR sort gate)” value was “low polyreactivity”.
For “QVQLEESGGGLVQAGGSLRLSCAASGSIFYDNVMGWSRQAPGKERELVAGITRGGSTNYADSVKGPFTISRDNAKNTVYLQMNSLKPEDTAVSYCAADGTYVWGSEEGNYWGQGTQVNVSS”, the “polyreactivity (PSR sort gate)” value was “low polyreactivity”.
With “QVQLEESGGGLVQAGGSLRLSCAASGSIFYEYAMGLYRTAPGKERVFVAAISSRGGYTNYADSVKGRFTISRDNAKNTVYLQMNSLKPEDTAVYYWAGYGGLQSRYYYWGLGTQVTVSS” the “polyreactivity (PSR sort gate)” value was “high polyreactivity”.
With “QVQLEESGGGLVQAGGSLRLSCAASGSIFYQYDMGWYRQAPGKERELVAAITQRGGRTYYADSVKGRFTISRDNAKNTVDLKMNSLKPELTAVYYCAADNDSYWGYVYWGQGTQVTVSS” the “polyreactivity (PSR sort gate)” value was “high polyreactivity”.
In the case of “QVQLEESGGGLVQAGGSLRLSCAASGSIIGPNAMGWYRQAPGKDRELVAAITSGSSTKYADSVKGRFTISRDNAMNTVYLQMNSLKPEDTAVDYCAASGTTTWKYGFWGQGTQVTVSS”, the “polyreactivity (PSR sort gate)” value is reported as “low polyreactivity”.
With “QVQLEESGGGLVQAGGSLRLSCAASGSILDLNAMGWSRQATGKERELVAAISYSGDSTYYADSVKGRFTISRDNAKNTVYLQMNSQKPEDTAVYYCAAEVYGAVYDYWGQGTQVTVSS” the “polyreactivity (PSR sort gate)” value was “low polyreactivity”.
In the case of “QVQLEESGGGLVQAGGSLRLSCAASGSIYYLNAMGWYRQAPGKERELVAAINSGGTTNYADSVKGRFTISRDNAKYTVYLQMNSLKPEDTAVYYCATDGYYYYYRVYKFDYWGQGTQVTVSS”, the “polyreactivity (PSR sort gate)” value is reported as “low polyreactivity”.
For “QVQLEESGGGLVQAGGSLRLSCAASGSTCPTNAIGWYRQAPRKERELVADITIRRGGTSYADSVKGRFTMSRDNAKNTVYLQMNSLKPEDTAVYYCARSKSTELKRLLYDSWGQGTQVTVSS”, the “polyreactivity (PSR sort gate)” value was “low polyreactivity”.
In the case of “QVQLEESGGGLVQAGGSLRLSCAASGSTFDFNAMGWYRQVPGKERELVAAITSGGSTNYADSVKGRFTISRDNAKNTVYLQMNSLKPEDTAVYYCAARPARGDSQGGYVRPWCYDSWGQGTQVTGSS”, the “polyreactivity (PSR sort gate)” value is reported as “low polyreactivity”.
